Results taken from US20020049303.

Tests used:
[1] = biological target: T1, synthetic peptide PS1-gamma LVNMAEGD
T1 chain: LVNMAEGD

[2] = biological target: T2, synthetic peptide NCH-gamma VGSGVLLSRK
T2 chain: VGSGVLLSRK

[3] = biological target: oxidized bovine insulin B chain, P01317
[4] = biological target: T3, synthetic peptide from the APP beta-secretase site with the Swedish mutation SEVNL/DAEFR
T3 chain: SEVNLDAEFR

[5] = biological target: recombinant pro-memapsin 2 (pro-M2pd)
[6] = biological target: T4, synthetic peptide from the APP beta-secretase site SEVKM/DAEFR
T4 chain: SEVKMDAEFR

[7] = biological target: T5, peptide from the processing site of presenilin 1 SVNM/AEGD
T5 chain: SVNMAEGD

[8] = biological target: Native proteins

recombinant pro-memapsin 2 (pro-M2pd), sequence (chain, as listed by the source): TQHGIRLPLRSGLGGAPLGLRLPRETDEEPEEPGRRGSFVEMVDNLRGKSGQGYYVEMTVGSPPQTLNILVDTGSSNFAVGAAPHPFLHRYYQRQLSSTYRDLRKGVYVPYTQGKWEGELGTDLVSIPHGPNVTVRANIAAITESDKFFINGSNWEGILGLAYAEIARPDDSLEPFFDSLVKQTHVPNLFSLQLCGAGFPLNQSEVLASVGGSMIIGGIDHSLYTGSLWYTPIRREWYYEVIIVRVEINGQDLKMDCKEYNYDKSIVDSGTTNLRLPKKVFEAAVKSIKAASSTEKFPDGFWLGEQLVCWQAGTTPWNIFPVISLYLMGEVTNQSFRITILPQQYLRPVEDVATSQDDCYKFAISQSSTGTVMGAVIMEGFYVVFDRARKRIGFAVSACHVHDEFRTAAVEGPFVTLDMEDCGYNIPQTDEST
oxidized bovine insulin B chain, P01317, sequence (P01317 25-54): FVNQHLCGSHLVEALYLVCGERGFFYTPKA

B1: recombinant memapsin 2 (M2pd), auto-activated from pro-M2pd at pH 4.0 (protein)
chain: GIRLPLRSGLGGAPLGLRLPRETDEEPEEPGRRGSFVEMVDNLRGKSGQGYYVEMTVGSPPQTLNILVDTGSSNFAVGAAPHPFLHRYYQRQLSSTYRDLRKGVYVPYTQGKWEGELGTDLVSIPHGPNVTVRANIAAITESDKFFINGSNWEGILGLAYAEIARPDDSLEPFFDSLVKQTHVPNLFSLQLCGAGFPLNQSEVLASVGGSMIIGGIDHSLYTGSLWYTPIRREWYYEVIIVRVEINGQDLKMDCKEYNYDKSIVDSGTTNLRLPKKVFEAAVKSIKAASSTEKFPDGFWLGEQLVCWQAGTTPWNIFPVISLYLMGEVTNQSFRITILPQQYLRPVEDVATSQDDCYKFAISQSSTGTVMGAVIMEGFYVVFDRARKRIGFAVSA
**Q.** How did the “hydrolytic sites (HPLC and mass spectrometry)” value (“hydrolytic sites” below) [1] turn out when B1 was run?
**A.** A single cleavage site was observed in synthetic peptide PS1-gamma

**Q.** What about the “hydrolytic sites” value [2] of the same protein?
**A.** Three hydrolytic sites were identified from peptide NCH-gamma

**Q.** What about the “hydrolytic sites” value [3] of the same protein?
**A.** Two hydrolytic sites were identified on oxidized insulin B-chain

**Q.** What about the Km [4] of the same protein?
**A.** Km, 1 mM

**Q.** What about the “fold increase of kcat/Km over native APP” value [4] of the same protein?
**A.** 60-fold increase of kcat/Km over that for native APP

**Q.** And the kcat [4]?
**A.** tcat, 2.45 s^-1

**Q.** What about the kcat/Km [4] of the same protein?
**A.** kcat/Km, 2450 s^-1M^-1

**Q.** And the self-cleavage sites [5]?
**A.** M^2pd cleaved its pro peptide (2 sites) and the protease portion (2 sites) during a 16 h incubation after activation

**Q.** What about the kcat/Km [6] of the same protein?
**A.** kcat/Km, 39.9 s^-1M^-1

**Q.** And the Km [7]?
**A.** Km, 15.2 mM

**Q.** What about the kcat [7] of the same protein?
**A.** kcat, 0.67 s^-1

**Q.** What about the kcat/Km [7] of the same protein?
**A.** kcat/Km, 43.8 s^-1M^-1

**Q.** And the hydrolysis [8]?
**A.** Native proteins were not cleaved by M2pd
